Measured values: patent publication WO2016038310A1
Values joined by “and” are separate entries in the source; they are usually repeats but may differ in a detail not shown here. Identical values can stand only once.

Experiments:
[1] = target: les eCG et hCG (equine and human chorionic gonadotropins); assay: ELISA saturation binding, Kd estimated with GraphPad Prism
[2] = target: les FSH ovine et humaine (ovine and human FSH); assay: as above

Kd [2]: 3.12 µM and 4.62 µM
B1: scFv A8 (scFv)
scFv: QVQLQQSGGGLVQPGGSRKLSCAASGFTFSDFGTHWIRQAPEKGLEWVAYISSGSSTRYYADTVKGRFTISRDDPKNTLFLQMTSLRSEDTAMYYCARSYDGYHVPSFAYWGQGTLVTVSAGGGGSGGGGSGGGGSDIQMTQTPLSLSVSLGDQASISCRSSQNIVHSNGNTYLEWYLQKPGQSPKLLIYRVSNRFSGIPDRFSGSSSGTDFTLKISRVEAEDLGVYYCFQGSHVPLTFGAGTKLELKHHHHHH
Kd [1]: 5.78 µM and 22.2 µM
